T1: human GSDMD, full length (human), P57764
T1 chain: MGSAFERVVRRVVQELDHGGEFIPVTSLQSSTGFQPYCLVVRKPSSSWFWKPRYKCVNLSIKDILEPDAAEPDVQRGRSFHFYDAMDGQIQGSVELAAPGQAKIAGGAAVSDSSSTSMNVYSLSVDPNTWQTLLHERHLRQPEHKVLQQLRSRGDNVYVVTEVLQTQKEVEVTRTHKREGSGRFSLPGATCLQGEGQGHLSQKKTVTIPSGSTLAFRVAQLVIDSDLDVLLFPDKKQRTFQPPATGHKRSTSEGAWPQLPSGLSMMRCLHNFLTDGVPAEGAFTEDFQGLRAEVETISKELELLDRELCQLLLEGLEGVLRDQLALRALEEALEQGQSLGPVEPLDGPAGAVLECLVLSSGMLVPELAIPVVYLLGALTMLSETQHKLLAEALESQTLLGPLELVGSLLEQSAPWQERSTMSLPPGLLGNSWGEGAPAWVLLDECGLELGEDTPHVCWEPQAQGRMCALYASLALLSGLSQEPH

B1: GSDMB isoform 1 pore subunit (N-terminal domain after 3C protease cleavage) (domain or fragment)
chain: MFSVFEEITRIVVKEMDAGGDMIAVRSLVDADRFRCFHLVGEKRTFFGCRHYTTGLTLMDILDTDGDKWLDELDSGLQGQKAEFQILDNVDSTGELIVRLPKEITISGSFQGFHHQKIKISENRISQQYLATLENRKLKRELPFSFRSINTRENLYLVTETLETVKEETLKSDRQYKFWSQISQGHLSYKHKGQREVTIPPNRVLSYRVKQLVFPNKETMSAGLDIHFRGKTKSFPEGKLEVLFQ
notes: human gasdermin B isoform 1 (Q8TAX9-1), from the start to K239, after which the 3C site was inserted; what is left of the 3C protease site (LEVLFQ/GP) after cleavage; Pores were 24-26-fold symmetric; GSDMB-C was removed by size exclusion; also called GSDMB pore; GSDMB prepore; source: E. coli BL21 (DE3), purified; cleaved by 3C protease on liposomes, pores extracted with C12E8 and purified on …
B2: human GSDMB isoform 1 construct for cryo-EM, 3C protease site inserted after K239 (uncleaved, full length) (natural protein)
chain: MFSVFEEITRIVVKEMDAGGDMIAVRSLVDADRFRCFHLVGEKRTFFGCRHYTTGLTLMDILDTDGDKWLDELDSGLQGQKAEFQILDNVDSTGELIVRLPKEITISGSFQGFHHQKIKISENRISQQYLATLENRKLKRELPFSFRSINTRENLYLVTETLETVKEETLKSDRQYKFWSQISQGHLSYKHKGQREVTIPPNRVLSYRVKQLVFPNKETMSAGLDIHFRGKTKSFPEGKLEVLFQGPSLGSEDSRNMKEKLEDMESVLKDLTEEKRKDVLNSLAKCLGKEDIRQDLEQRVSEVLISGELHMEDPDKPLLSSLFNAAGVLVEARAKAILDFLDALLELSEEQQFVAEALEKGTLPLLKDQVKSVMEQNWDELASSPPDMDYDPEARILCALYVVVSILLELAEGPTSVSS
notes: human gasdermin B isoform 1 (Q8TAX9-1), full length, with a human rhinovirus 3C protease site (LEVLFQ/GP) inserted after residue K239; The methods say the 3C site is in 'the GSDMB construct used for cryo-EM structural determination'; source: E. coli BL21 (DE3), co-expressed with IpaH7.8, complex purified (Ni-NTA, Hitrap Q, Superdex 200); not shown: His6-SUMO, N-terminal, cleaved
B3: Shigella flexneri IpaH7.8 without affinity tag (co-expressed with GSDMB) (enzyme)
chain: MFSVNNTHSSVSCSPSINSNSTSNEHYLRILTEWEKNSSPGEERGIAFNRLSQCFQNQEAVLNLSDLNLTSLPELPKHISALIVENNKLTSLPKLPAFLKELNADNNRLSVIPELPESLTTLSVRSNQLENLPVLPNHLTSLFVENNRLYNLPALPEKLKFLHVYYNRLTTLPDLPDKLEILCAQRNNLVTFPQFSDRNNIRQKEYYFHFNQITTLPESFSQLDSSYRINISGNPLSTRVLQSLQRLTSSPDYHGPQIYFSMSDGQQNTLHRPLADAVTAWFPENKQSDVSQIWHAFEHEEHANTFSAFLDRLSDTVSARNTSGFREQVAAWLEKLSASAELRQQSFAVAADATESCEDRVALTWNNLRKTLLVHQASEGLFDNDTGALLSLGREMFRLEILEDIARDKVRTLHFVDEIEVYLAFQTMLAEKLQLSTAVKEMRFYGVSGVTANDLRTAEAMVRSREENEFTDWFSLWGPWHAVLKRTEADRWAQAEEQKYEMLENEYSQRVADRLKASGLSGDADAEREAGAQVMRETEQQIYRQLTDEVLALRLSENGSRLHHS
notes: only the LRR domain is visible in the map; source: E. coli BL21 (DE3), co-expressed with His6-SUMO-GSDMB, complex purified (Ni-NTA, Hitrap Q, Superdex 200)

Tests used:
[1] = molecular target: human GSDMB (isoform 1, Q8TAX9-1), full length (human); test: ITC; VP-ITC, 20 °C, 25 mM Tris-HCl pH 8.0, 150 mM NaCl; IpaH7.8 (200 μM) injected into GSDMB (10 μM), or IpaH7.8 (625 μM) into hGSDMD or mGSDMD (40 μM); 25 injections; one-site binding model
[2] = molecular target: the molecule itself; test: cryo-EM structure; GSDMB isoform 1 cleaved by 3C protease on liposomes, pores solubilised with C12E8 and purified on Superose 6; C24 symmetry, 4.96 Å (globular domain 4.48 Å)
[3] = molecular target: B3; test: cryo-EM structure; GSDMB-IpaH7.8 complex co-expressed in E. coli and co-purified, 0.5 mg/ml, 25 mM HEPES pH 7.5, 150 mM NaCl; 3.8 Å; conditions: both partners purified
[4] = molecular target: T1, human GSDMD, full length (human), P57764; test: ITC; VP-ITC, 20 °C, 25 mM Tris-HCl pH 8.0, 150 mM NaCl; IpaH7.8 (200 μM) injected into GSDMB (10 μM), or IpaH7.8 (625 μM) into hGSDMD or mGSDMD (40 μM); 25 injections; one-site binding model; conditions: remark: other sources report otherwise
[5] = molecular target: B2; test: cryo-EM structure; GSDMB-IpaH7.8 complex co-expressed in E. coli and co-purified, 0.5 mg/ml, 25 mM HEPES pH 7.5, 150 mM NaCl; 3.8 Å; conditions: both partners purified

“Shigella flexneri IpaH7.8 (wild type), C-terminal 6XHis construct (from UniProt P18014 1-565) (enzyme)” was tested. Which Kd [1] did it give?
The Kd was 0.44 µM.

B1 was tested. Which “stoichiometry N” value [2] did it give?
The value was 24.

Does B2 bind [3]?
Result: binds

B3 was tested. Which Kd [4] did it give?
The Kd was 20.4 µM.

And the “stoichiometry N” value [5]?
The value was 1.

Source: PMC10115629, “Structural basis for GSDMB pore formation and its targeting by IpaH7.8” (Nature, 2023)
